In paper PMC12416549 (2024):
Where a chain is given by its changes, count along the chain named. Names and notes keep the numbering of the source.

T1: TNFR1 (Homo sapiens, UniProt P19438)
T1 chain: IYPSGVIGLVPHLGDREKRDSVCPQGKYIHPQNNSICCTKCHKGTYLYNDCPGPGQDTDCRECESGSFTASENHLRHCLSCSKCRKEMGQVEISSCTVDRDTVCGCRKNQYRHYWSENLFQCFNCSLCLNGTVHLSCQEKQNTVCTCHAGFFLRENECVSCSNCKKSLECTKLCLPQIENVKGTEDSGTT

B1: V57K (designed binder)
chain: MTLQELLREEALRRAEAEAFRYALELLAEKFPEQKEYLLDLAEEIESQIRSLSGVDKEDVRKFLDKEWAWVKELLAEHPAELAEVEAARAARLAELRAEVEAKVAA
B2: E10M (designed binder)
chain: B1 chain with E10M, K57V
B3: R14P (designed binder)
chain: B1 chain with R14P, K57V
B4: A69S (designed binder)
chain: B1 chain with K57V, A69S
B5: E33C (designed binder)
chain: B1 chain with E33C, K57V
B6: E77G (designed binder)
chain: B1 chain with K57V, E77G
B7: R89C (designed binder)
chain: B1 chain with K57V, R89C
B8: L39P (designed binder)
chain: B1 chain with L39P, K57V
B9: E33G (designed binder)
chain: B1 chain with E33G, K57V
B10: K103T (designed binder)
chain: B1 chain with K57V, K103T
B11: D40W (designed binder)
chain: B1 chain with D40W, K57V
B12: E73K (designed binder)
chain: B1 chain with K57V, E73K
B13: E84W (designed binder)
chain: B1 chain with K57V, E84W
B14: I45N (designed binder)
chain: B1 chain with I45N, K57V
B15: V71A (designed binder)
chain: B1 chain with K57V, V71A
B16: P79K (designed binder)
chain: B1 chain with K57V, P79K
B17: A102H (designed binder)
chain: B1 chain with K57V, A102H
B18: R8E (designed binder)
chain: B1 chain with R8E, K57V
B19: D59Y (designed binder)
chain: B1 chain with K57V, D59Y
B20: E73T (designed binder)
chain: B1 chain with K57V, E73T
B21: R8V (designed binder)
chain: B1 chain with R8V, K57V
B22: R50H (designed binder)
chain: B1 chain with R50H, K57V
B23: P32T (designed binder)
chain: B1 chain with P32T, K57V
B24: M1P (designed binder)
chain: B1 chain with M1P, K57V
B25: R8A (designed binder)
chain: B1 chain with R8A, K57V
B26: K66S (designed binder)
chain: B1 chain with K57V, K66S
B27: L75F (designed binder)
chain: B1 chain with K57V, L75F
B28: R61K (designed binder)
chain: B1 chain with K57V, R61K
B29: A105P (designed binder)
chain: B1 chain with K57V, A105P
B30: T2M (designed binder)
chain: B1 chain with T2M, K57V
B31: L26H (designed binder)
chain: B1 chain with L26H, K57V
B32: W68L (designed binder)
chain: B1 chain with K57V, W68L
B33: A94K (designed binder)
chain: B1 chain with K57V, A94K
B34: V55K (designed binder)
chain: B1 chain with V55K, K57V
B35: E43S (designed binder)
chain: B1 chain with E43S, K57V
B36: L96C (designed binder)
chain: B1 chain with K57V, L96C
B37: A76I (designed binder)
chain: B1 chain with K57V, A76I
B38: E86G (designed binder)
chain: B1 chain with K57V, E86G
B39: L64D (designed binder)
chain: B1 chain with K57V, L64D
B40: R13M (designed binder)
chain: B1 chain with R13M, K57V
B41: I45C (designed binder)
chain: B1 chain with I45C, K57V
B42: L12P (designed binder)
chain: B1 chain with L12P, K57V
B43: V85L (designed binder)
chain: B1 chain with K57V, V85L
B44: E77R (designed binder)
chain: B1 chain with K57V, E77R
B45: A98N (designed binder)
chain: B1 chain with K57V, A98N
B46: V71H (designed binder)
chain: B1 chain with K57V, V71H
B47: E77A (designed binder)
chain: B1 chain with K57V, E77A
B48: E29N (designed binder)
chain: B1 chain with E29N, K57V
B49: V104D (designed binder)
chain: B1 chain with K57V, V104D
B50: P32W (designed binder)
chain: B1 chain with P32W, K57V
B51: D40E (designed binder)
chain: B1 chain with D40E, K57V
B52: A17M (designed binder)
chain: B1 chain with A17M, K57V
B53: F31I (designed binder)
chain: B1 chain with F31I, K57V
B54: R97H (designed binder)
chain: B1 chain with K57V, R97H
B55: L96F (designed binder)
chain: B1 chain with K57V, L96F
B56: P79R (designed binder)
chain: B1 chain with K57V, P79R
B57: E25T (designed binder)
chain: B1 chain with E25T, K57V
B58: W68E (designed binder)
chain: B1 chain with K57V, W68E
B59: L7Q (designed binder)
chain: B1 chain with L7Q, K57V

Biological target: T1, TNFR1
Test: yeast display SC50

Row | apparent Kd (screen) | Binder
1 | 1.16 nM | B1
2 | 2.48 nM | B2
3 | 0.49 nM | B3
4 | 0.718 nM | B4
5 | 0.593 nM | B5
6 | 0.593 nM | B6
7 | 0.653 nM | B7
8 | 5.84 nM | B8
9 | 0.79 nM | B9
10 | 0.956 nM | B10
11 | 0.49 nM | B11
12 | 0.539 nM | B12
13 | 0.593 nM | B13
14 | 4.83 nM | B14
15 | 0.49 nM | B15
16 | 0.593 nM | B16
17 | 1.16 nM | B17
18 | 0.49 nM | B18
19 | 3 nM | B19
20 | 0.718 nM | B20

Row | apparent Kd (screen) | Binder
21 | 0.539 nM | B21
22 | 0.539 nM | B22
23 | 0.539 nM | B23
24 | 0.446 nM | B24
25 | 0.869 nM | B25
26 | 0.49 nM | B26
27 | 1.27 nM | B27
28 | 0.446 nM | B28
29 | 0.79 nM | B29
30 | 0.49 nM | B30
31 | 0.593 nM | B31
32 | 0.539 nM | B32
33 | 0.653 nM | B33
34 | 16.7 nM | B34
35 | 0.49 nM | B35
36 | 0.49 nM | B36
37 | 0.653 nM | B37
38 | 0.539 nM | B38
39 | 26.9 nM | B39
40 | 0.304 nM | B40

Row | apparent Kd (screen) | Binder
41 | 2.48 nM | B41
42 | 1.05 nM | B42
43 | 2.73 nM | B43
44 | 0.49 nM | B44
45 | 0.869 nM | B45
46 | 0.539 nM | B46
47 | 0.539 nM | B47
48 | 0.956 nM | B48
49 | 0.718 nM | B49
50 | 0.49 nM | B50
51 | 0.593 nM | B51
52 | 0.446 nM | B52
53 | 0.956 nM | B53
54 | 0.593 nM | B54
55 | 0.539 nM | B55
56 | 0.869 nM | B56
57 | 0.405 nM | B57
58 | 2.73 nM | B58
59 | 8.56 nM | B59
